Assay results taken from patent US20260109755A1 (published 2026).
Substitutions are numbered along the chain they refer to. In names and notes the source's numbering stands.

T1: SH3 domain-containing YSC84-like 1 (SH3YL1), antigen of the antibodies (UniProt Q96HL8 1-342)
T1 chain: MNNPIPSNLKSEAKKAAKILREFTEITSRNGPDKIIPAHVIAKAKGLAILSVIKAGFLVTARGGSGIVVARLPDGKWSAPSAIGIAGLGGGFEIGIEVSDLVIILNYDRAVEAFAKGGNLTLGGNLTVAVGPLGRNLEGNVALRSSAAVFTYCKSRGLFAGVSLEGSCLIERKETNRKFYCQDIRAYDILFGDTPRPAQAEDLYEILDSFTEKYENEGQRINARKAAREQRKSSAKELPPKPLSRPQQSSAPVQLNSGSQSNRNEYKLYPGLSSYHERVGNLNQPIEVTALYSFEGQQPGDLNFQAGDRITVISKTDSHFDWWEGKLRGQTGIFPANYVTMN

B1: S4A antibody (antibody, V domains shown)
VH: EVQLLESGGGLVQPGGSLRLSCAASGFTFSSYSMNWVRQAPGKGLEWVSWISPNSGSTDYAQKFQGRFTISRDNSKNTLYLQMNSLRAEDTAVYYCARTPPGTPFDYWGQGTLVTVSS
VL: QSVLTQPPSASGTPGQRVTISCSGNNIGSKSVHWYQQLPGTAPRLLIYSTSNKHSGVPDRFSGSKSGTSASLAISGLHSEDEADYYCSSYTSSGTRVFGGGTKLTVLG
B2: 3E11 antibody (antibody, V domains shown)
VH: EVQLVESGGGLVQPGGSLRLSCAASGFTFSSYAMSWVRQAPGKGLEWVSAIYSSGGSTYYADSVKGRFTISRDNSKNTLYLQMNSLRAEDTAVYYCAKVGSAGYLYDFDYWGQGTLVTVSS
VL: DIQMTQSPSSLSASVGDRVTITCRASQDIANYLNWYQQKPGKAPKLLIYATSTLQSGVPSRFSGSGSGTDFTLTISSLQPEDFATYYCQQSYSSPWTFGQGTKVEIKR
B3: 5D5 antibody (antibody, V domains shown)
VH: EVQLVESGGGLVQPGGSLRLSCAASGFTFSDYAMSWVRQAPGKGLEWVSSISSTGSTTYYADSVKGRFTISRDNSKNTLYLQMNSLRAEDTAVYYCAKVLYEYLYFDYWGQGTLVTVSS
VL: B2 VL with A30R, Y32W, T51A, T53S
B4: 4F9 antibody (antibody, V domains shown)
VH: B3 VH with S50A, S52K, T54S, T57S, V99A, L100E, Y105A, Y108I
VL: B2 VL with A30S, N31S, Y32W
B5: 4G4 antibody (antibody, V domains shown)
VH: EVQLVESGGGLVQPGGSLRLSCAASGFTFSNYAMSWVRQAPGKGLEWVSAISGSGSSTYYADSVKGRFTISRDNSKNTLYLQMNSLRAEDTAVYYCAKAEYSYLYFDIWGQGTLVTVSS
VL: B2 VL with D28S, A30S, Y32W, T51A, T53R
B6: 4H7 antibody (antibody, V domains shown)
VH: EVQLVESGGGLVQPGGSLRLSCAASGFTFSTYGMSWVRQAPGKGLEWVSAISSSGGSIYYADSVKGRFTISRDNSKNTLYLQMNSLRAEDTAVYYCAKVSYPGLAFDIWGQGTLVTVSS
VL: B2 VL with D28T, A30S, T53S
B7: 4F10 antibody (antibody, V domains shown)
VH: EVQLVESGGGLVQPGGSLRLSCAASGFTFSDYAMSWVRQAPGKGLEWVSAIYSTGSSTYYADSVKGRFTISRDNSKNTLYLQMNSLRAEDTAVYYCAKVGWYLFDYWGQGTLVTVSS
VL: B2 VL with D28S, A30S, N31R, T53R

Target: T1, SH3 domain-containing YSC84-like 1 …

| Binder | Kd |
| --- | --- |
| B1 | 2.06 nM |
| B2 | 3.56 nM |
| B3 | 5.49 nM |
| B4 | 3.63 nM |
| B5 | 2.96 nM |
| B6 | 3.43 nM |
| B7 | 0.404 nM |
